Results: patent WO2019077951A1 (dated 2019)

Target: T1, full-length MUC1 (amino acid sequence of SEQ ID NO: 27) (human (human cervical cancer cell line …, UniProt P15941 24-1255, limits assumed))
T1 construct: Full-length protein from cell extract on a Western blot membrane
Assay: Western blotting

T1 sequence (P15941 other isoform, or with tags, fused parts or gaps limits assumed): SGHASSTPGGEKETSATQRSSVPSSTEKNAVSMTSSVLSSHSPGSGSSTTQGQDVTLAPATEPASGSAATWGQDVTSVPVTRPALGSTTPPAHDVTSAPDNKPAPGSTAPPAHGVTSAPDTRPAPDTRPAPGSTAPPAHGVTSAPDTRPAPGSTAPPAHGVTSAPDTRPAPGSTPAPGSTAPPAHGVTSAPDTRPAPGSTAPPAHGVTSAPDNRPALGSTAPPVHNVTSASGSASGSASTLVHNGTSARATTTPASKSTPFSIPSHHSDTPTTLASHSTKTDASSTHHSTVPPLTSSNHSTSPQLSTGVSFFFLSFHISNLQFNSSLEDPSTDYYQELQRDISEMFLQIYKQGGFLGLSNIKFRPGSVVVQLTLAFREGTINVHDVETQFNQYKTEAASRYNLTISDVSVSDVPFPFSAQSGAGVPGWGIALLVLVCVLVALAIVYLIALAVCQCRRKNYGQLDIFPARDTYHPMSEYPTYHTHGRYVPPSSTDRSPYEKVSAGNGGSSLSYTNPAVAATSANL

B1: anti-MUC1 monoclonal antibody (antibody, V domains shown)
VH: EVKLEESGGGLVQPGGSMKLSCVASGFSFSDYWMNWVRQSPDKGLEWISDIRLKSYNYATHYAESVKGRFTISRDDSKSGVYLQMNNLRAEDTGLYYCTFGNSFAYWGQGTLVTVSA
VL: QAVVTQESALTTSPGETVTLTCRSSTGAVTTSNYANWVQEKPDHLFTGLIGGTNNRAPGVPARFSGSLIGDKAALTITGAQTEDEAIYFCALWYSNHWVFGGGTKLTVLG
notes: also called MUC1 antibody
binding result: binds
